The results in this text go back to patent US20250171534A1 (D2M BIOTHERAPEUTICS, published 2025).

Experiment [1] concerns the target T1, human LILRB2 expressed on cells (human, UniProt Q8N423 22-597).
T1 construct: In 293T cells it was expressed from pCMV3-LILRB2-GFP; also called CHO-LILRB2; Jurkat-LILRB2
Briefly: flow cytometry on CHO-LILRB2 cells, non-linear fit of the curves of FIG. 26B. For orientation: In flow cytometry, cells or beads pass a laser one at a time.

Experiment [2] has as its target T2, LILRB2-ECD-His (SinoBiological, Cat #: 14132-H08H-B) (Homo sapiens (Human), UniProt Q8N423 22-460, biotinylated (site not stated)). Briefly: competition ELISA: plate coated with MAG, biotinylated LILRB2 pre-incubated with titrated antibody, streptavidin-HRP and TMB, OD450.
The target in experiment [3] is T3, LILRA1 expressed on cells (human, UniProt O75019 17-489).
T3 construct: whole, on cells; GFP-tagged; also called human LILRA1; CHO-LILRA1
Briefly: flow cytometry on CHO-LILRA1 cells (CHO-RA1), titrated antibody, labelled anti-human Fc, gMFI.

Experiment [4] addresses T1, human LILRB2 expressed on cells. Briefly: flow cytometry on CHO-LILRB2 cells (CHO-RB2); D2M002-126 as stock or kept in PBS or human plasma at 37 °C for 1, 2 or 3 weeks; labelled anti-human Fc, gMFI.
Experiment [5] has as its target T4, human LILRB1 expressed on cells (human, UniProt Q8NHL6 24-650).
T4 construct: In 293T cells it was expressed from pCMV3-LILRB1-GFP; also called CHO-LILRB1; Jurkat-LILRB1
Put plainly: flow cytometry on CHO-LILRB1 cells, non-linear fit of the curves of FIG. 26A.

In experiment [6] the target is T5, LILRB2-ECD-HIS (SinoBiological Cat #: 14132-H02H) (human, UniProt Q8N423 22-460).
T5 construct: Bought protein; also called monomeric antigen LILRB2-ECD-HIS; not shown: His tag
Put plainly: SPR (Carterra), LILRB2-ECD-his.

The target in experiment [7] is T2, LILRB2-ECD-His (SinoBiological, Cat #: …). Briefly: competition ELISA: plate coated with ANGPTL2, biotinylated LILRB2 pre-incubated with titrated antibody, streptavidin-HRP and TMB, OD450. A general note: In an ELISA, binding on a coated surface is turned into a signal by an enzyme label.
In experiment [8] the target is T4, human LILRB1 expressed on cells. Put plainly: flow cytometry, Jurkat-LILRB1 cells; blocked ligand: APC HLA-G trimer tetramer.
The target in experiment [9] is T6, LILRB1-ECD-HIS (SinoBiological Cat #: 16014-H02H) (human, UniProt Q8NHL6 24-461).
T6 construct: Bought protein; also called monomeric antigen LILRB1-ECD-HIS; not shown: His tag
Put plainly: SPR (Carterra), LILRB1-ECD-his.

The target in experiment [10] is T4, human LILRB1 expressed on cells. Briefly: flow cytometry on CHO-LILRB1 cells (CHO-RB1); D2M002-126 as stock or kept in PBS or human plasma at 37 °C for 1, 2 or 3 weeks; labelled anti-human Fc, gMFI.
Experiment [11] has as its target T2, LILRB2-ECD-His (SinoBiological, Cat #: …). Put plainly: competition ELISA: plate coated with CD1C, biotinylated LILRB2 pre-incubated with titrated antibody, streptavidin-HRP and TMB, OD450.
Experiment [12] addresses T1, human LILRB2 expressed on cells. Briefly: flow cytometry, Jurkat-LILRB2 cells; blocked ligand: APC HLA-G monomer tetramer.
Experiment [13] concerns the target T6, LILRB1-ECD-HIS (SinoBiological Cat #: …). Briefly: BLI (Gator), RB1-ECD-his.
Experiment [14] has as its target T2, LILRB2-ECD-His (SinoBiological, Cat #: …). Briefly: competition ELISA: plate coated with SEMA4A, biotinylated LILRB2 pre-incubated with titrated antibody, streptavidin-HRP and TMB, OD450.
Experiment [15] deals with T7, LILRB3 expressed on cells (human, UniProt O75022 24-631).
T7 construct: whole, on cells; Expressed with a GFP tag from the bought plasmid; also called human LILRB3; CHO-LILRB3
Put plainly: flow cytometry on CHO-LILRB3 cells (CHO-RB3), titrated antibody, labelled anti-human Fc, gMFI.

Experiment [16] concerns the target T2, LILRB2-ECD-His (SinoBiological, Cat #: …). Put plainly: competition ELISA: plate coated with CD1D, biotinylated LILRB2 pre-incubated with titrated antibody, streptavidin-HRP and TMB, OD450.
The target in experiment [17] is T1, human LILRB2 expressed on cells. Put plainly: flow cytometry, Jurkat-LILRB2 cells.
In experiment [18] the target is T4, human LILRB1 expressed on cells. Put plainly: flow cytometry on CHO-LILRB1 cells (CHO-RB1), titrated antibody, labelled anti-human Fc, gMFI.
The target of experiment [19] is T5, LILRB2-ECD-HIS (SinoBiological Cat #: …). Put plainly: BLI (Gator), RB2-ECD-his.
The target of experiment [20] is T2, LILRB2-ECD-His (SinoBiological, Cat #: …). Put plainly: competition ELISA: plate coated with ANGPTL5, biotinylated LILRB2 pre-incubated with titrated antibody, streptavidin-HRP and TMB, OD450.
The target in experiment [21] is T8, LILRA6 expressed on cells (human, UniProt Q6PI73 24-481).
T8 construct: whole, on cells; GFP-tagged; also called human LILRA6; CHO-LILRA6
Put plainly: flow cytometry on CHO-LILRA6 cells (CHO-RA6), titrated antibody, labelled anti-human Fc, gMFI.

For experiment [22], the target named is T3, LILRA1 expressed on cells. Put plainly: flow cytometry on CHO-LILRA1 cells, non-linear fit of the curves of FIG. 26E.
Experiment [23] has as its target T4, human LILRB1 expressed on cells. Put plainly: flow cytometry, Jurkat-LILRB1 cells.
The target in experiment [24] is T1, human LILRB2 expressed on cells. Briefly: flow cytometry on CHO-LILRB2 cells (CHO-RB2), titrated antibody, labelled anti-human Fc, gMFI.
Experiment [25] addresses T4, human LILRB1 expressed on cells. Briefly: flow cytometry, CHO-LILRB1 cells.
Experiment [26] concerns the target T5, LILRB2-ECD-HIS (SinoBiological Cat #: …). Briefly: SPR (Carterra LSA), antibody captured, antigen injected.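 Further: kd obtained from kinetic analysis of antibody binding to the antigen, with association and dissociation phases fitted in the instrument software.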
Experiment [27] concerns the target T6, LILRB1-ECD-HIS (SinoBiological Cat #: …). Described as above.
Experiment [28] deals with T1, human LILRB2 expressed on cells. Briefly: flow cytometry, CHO-LILRB2 cells.
Experiment [29] shares this target. Put plainly: flow cytometry, CHO-LILRB2 cells. This is another data set of the same source.

T6 sequence (Q8NHL6 other isoform, or with tags, fused parts or gaps H02H H02H): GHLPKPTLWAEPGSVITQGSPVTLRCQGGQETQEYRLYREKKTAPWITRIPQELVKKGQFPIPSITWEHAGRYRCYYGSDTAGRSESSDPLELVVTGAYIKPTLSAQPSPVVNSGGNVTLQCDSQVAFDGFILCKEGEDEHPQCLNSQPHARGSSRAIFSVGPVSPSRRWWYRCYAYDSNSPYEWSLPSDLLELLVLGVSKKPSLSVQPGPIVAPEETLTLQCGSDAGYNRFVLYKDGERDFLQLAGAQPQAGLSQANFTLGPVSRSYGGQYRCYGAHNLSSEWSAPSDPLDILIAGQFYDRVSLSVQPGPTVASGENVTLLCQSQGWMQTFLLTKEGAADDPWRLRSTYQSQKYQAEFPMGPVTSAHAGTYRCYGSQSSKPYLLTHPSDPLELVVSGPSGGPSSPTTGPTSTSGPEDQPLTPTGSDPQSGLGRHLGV
T1 sequence (Q8N423 other isoform, or with tags, fused parts or gaps limits assumed): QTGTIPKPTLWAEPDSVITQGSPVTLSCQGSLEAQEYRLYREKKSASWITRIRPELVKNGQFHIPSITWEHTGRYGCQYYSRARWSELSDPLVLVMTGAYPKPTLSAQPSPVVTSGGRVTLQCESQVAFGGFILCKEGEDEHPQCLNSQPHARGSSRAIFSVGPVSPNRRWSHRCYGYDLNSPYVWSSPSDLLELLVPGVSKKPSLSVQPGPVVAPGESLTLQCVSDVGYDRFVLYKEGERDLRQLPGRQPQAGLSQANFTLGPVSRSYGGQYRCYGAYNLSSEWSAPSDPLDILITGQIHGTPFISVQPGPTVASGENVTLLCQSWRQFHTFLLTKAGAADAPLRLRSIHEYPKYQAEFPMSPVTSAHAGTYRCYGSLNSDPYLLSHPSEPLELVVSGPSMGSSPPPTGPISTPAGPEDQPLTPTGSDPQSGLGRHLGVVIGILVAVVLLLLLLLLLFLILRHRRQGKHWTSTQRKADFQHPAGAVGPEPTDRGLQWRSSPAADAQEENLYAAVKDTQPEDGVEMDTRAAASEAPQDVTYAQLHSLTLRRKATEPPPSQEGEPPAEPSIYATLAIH
T2 sequence (Q8N423 other isoform, or with tags, fused parts or gaps H08H H08H): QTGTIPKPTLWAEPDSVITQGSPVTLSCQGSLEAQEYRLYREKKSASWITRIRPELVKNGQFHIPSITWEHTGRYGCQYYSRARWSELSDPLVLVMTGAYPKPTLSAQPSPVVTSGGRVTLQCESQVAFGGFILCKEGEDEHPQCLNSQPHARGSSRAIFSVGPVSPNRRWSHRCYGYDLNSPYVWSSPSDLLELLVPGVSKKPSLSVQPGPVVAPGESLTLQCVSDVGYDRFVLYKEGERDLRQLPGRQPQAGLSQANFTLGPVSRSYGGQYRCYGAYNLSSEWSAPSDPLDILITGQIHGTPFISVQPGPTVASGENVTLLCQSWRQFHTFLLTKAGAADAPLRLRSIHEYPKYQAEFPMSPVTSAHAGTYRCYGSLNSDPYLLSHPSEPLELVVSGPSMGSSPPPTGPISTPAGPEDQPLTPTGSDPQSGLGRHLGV
T5 sequence (Q8N423 other isoform, or with tags, fused parts or gaps H02H H02H): as the sequence (Q8N423 other isoform, or with tags, fused parts or gaps H08H H08H) above
T4 sequence (Q8NHL6 other isoform, or with tags, fused parts or gaps limits assumed): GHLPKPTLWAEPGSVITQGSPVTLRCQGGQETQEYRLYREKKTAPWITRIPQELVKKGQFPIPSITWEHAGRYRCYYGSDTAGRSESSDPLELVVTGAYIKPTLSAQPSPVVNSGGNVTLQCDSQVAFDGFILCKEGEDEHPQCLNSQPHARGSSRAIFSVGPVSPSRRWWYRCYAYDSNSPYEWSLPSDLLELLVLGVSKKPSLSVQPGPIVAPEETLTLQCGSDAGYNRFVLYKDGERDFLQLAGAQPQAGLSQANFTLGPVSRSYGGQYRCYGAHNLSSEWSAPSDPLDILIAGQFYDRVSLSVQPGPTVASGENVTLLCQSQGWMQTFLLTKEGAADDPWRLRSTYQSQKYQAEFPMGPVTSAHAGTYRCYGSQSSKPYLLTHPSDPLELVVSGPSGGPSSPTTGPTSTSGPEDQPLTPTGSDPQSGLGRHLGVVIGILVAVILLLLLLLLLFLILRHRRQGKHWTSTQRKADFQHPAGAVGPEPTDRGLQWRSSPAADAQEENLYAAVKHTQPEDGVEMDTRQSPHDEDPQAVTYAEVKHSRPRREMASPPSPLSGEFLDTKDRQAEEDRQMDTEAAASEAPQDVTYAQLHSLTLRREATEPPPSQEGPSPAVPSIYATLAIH
T3 sequence (O75019 17-489): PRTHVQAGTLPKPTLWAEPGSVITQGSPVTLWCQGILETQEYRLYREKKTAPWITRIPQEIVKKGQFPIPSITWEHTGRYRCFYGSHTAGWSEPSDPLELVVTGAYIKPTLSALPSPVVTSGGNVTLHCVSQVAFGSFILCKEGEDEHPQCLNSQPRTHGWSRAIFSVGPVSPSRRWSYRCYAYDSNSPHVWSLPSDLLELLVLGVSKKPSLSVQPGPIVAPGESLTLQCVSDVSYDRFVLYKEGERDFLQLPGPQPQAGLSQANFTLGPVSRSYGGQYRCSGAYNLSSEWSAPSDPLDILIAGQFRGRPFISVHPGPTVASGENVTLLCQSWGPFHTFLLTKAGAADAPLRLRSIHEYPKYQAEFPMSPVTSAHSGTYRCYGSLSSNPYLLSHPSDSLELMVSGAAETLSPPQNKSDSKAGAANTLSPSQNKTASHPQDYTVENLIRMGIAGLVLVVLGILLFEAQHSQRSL
T8 sequence (Q6PI73 24-481): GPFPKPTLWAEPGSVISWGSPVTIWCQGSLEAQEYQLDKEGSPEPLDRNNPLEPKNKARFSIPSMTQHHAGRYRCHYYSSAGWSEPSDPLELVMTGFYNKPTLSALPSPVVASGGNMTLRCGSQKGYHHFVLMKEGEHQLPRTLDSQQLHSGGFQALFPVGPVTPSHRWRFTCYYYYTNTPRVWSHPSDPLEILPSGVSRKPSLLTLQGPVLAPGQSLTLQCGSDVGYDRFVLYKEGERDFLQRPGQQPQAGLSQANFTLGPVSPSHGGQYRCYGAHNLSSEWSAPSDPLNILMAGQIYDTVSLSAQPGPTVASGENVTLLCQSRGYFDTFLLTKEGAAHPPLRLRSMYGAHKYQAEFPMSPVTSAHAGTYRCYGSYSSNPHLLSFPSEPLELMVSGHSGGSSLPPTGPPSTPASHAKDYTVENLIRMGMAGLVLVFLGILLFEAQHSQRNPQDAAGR

B1: D2M002-126 (antibody, V domains shown)
VH: QVQLVQSGAEVKKPGASVKVSCKASGYTFTSYWIEWVRQAPGQGLEWIGEILPGDESTNYNAKFKGRVTFTTDTSTSTAYMELRSLRSDDTAVYYCARSGAGGYDSGAFAYWGQGTLVTVSS
VL: AIQLTQSPSSLSASVGDRVTITCRASESVDTYGNSFMHWYQQKPGKAPKLLVYRTSNLESGVPSRFSGSGSGTDFTLTISSLQPEDFATYYCQQSNEDPWTFGGGTKVEIK
notes: Humanized and optimized variant of D2M002-026
As a reminder, the EC50 is the concentration giving half of the maximal effect. The EC50 (read off the curve) is the concentration that produces a half-maximal response. Broadly, the Kd is the concentration at which binding is half-saturated. Lower therefore signals tighter binding. By koff is commonly meant a measure of how fast the partners let go of each other. Lower therefore signals slow dissociation. What is called kon is the rate constant with which the complex forms. A low value points to slow association. As usually defined, the IC50 is the concentration that inhibits the measured activity by half. For B1, the concentration giving a half-maximal response (EC50) in experiment [1] was determined as 0.206 µg/mL; in experiment [5], 0.388 µg/mL; in experiment [17] it was 0.081 µg/mL; in [22] it was 0.102 µg/mL; in experiment [23], 1.45 µg/mL. Further, the MaxMFI worked out at 33600 in experiment [1], 113000 in experiment [5] and 27500 in experiment [22]. The “IC50 (read off the curve)” value in experiment [2] was around 1 µg/mL; in experiment [7] it was around 1 µg/mL; in [11], around 2 µg/mL; in experiment [14], around 1 µg/mL; in experiment [16], around 2 µg/mL; in experiment [20], around 1 µg/mL. Also, the concentration for a half-maximal effect (EC50 (read off the curve)) in [3] is around 0.1 µg/mL; in [4], around 0.1 µg/mL; in experiment [10], around 0.3 µg/mL; in [18], around 0.4 µg/mL; in experiment [24], around 0.2 µg/mL. Moreover, the equilibrium dissociation constant (Kd) turned out to be 0.119 nM in [6], 0.515 nM in experiment [9], 0.366 nM in experiment [13] and 0.0482 nM in [19]. In addition, the koff worked out at 5.89e-05 s⁻¹ in experiment [6] and 2.17e-05 s⁻¹ in experiment [9]. Besides, the kon in experiment [6] is 496000 M⁻¹ s⁻¹; in [9], 42100 M⁻¹ s⁻¹. The 50% inhibitory concentration (IC50) in [8] was 0.304 µg/mL; in [12], 0.015 µg/mL. For the same molecule, the binding result in experiment [15] and in experiment [21] was “no binding (tested: about 30 µg/mL (log10 about 1.5))” in each case.

B2: D2M002-044 (antibody, human IgG1, V domains shown)
VH: EVQLQQSGAELVRPGALVKLSCKGSGFNIKDYYMHWVRQRPEQGLEWIGWIDPENGNTVYAPKFQGKASITSDTSSNIAYLQFSSLTSEDTAVYYCARSRDHGAMDYWGQGTSVTVSS
VL: DVQITQSPAIMSASPGEKVTLTCSASSSVSSSNLYWYQQKPGSSPKLWIYSTSNLASGVPARFSGSGFGTSYALTISSMEAEDAASYFCHQWSSYPYTFGGGTKLEIK
notes: Hit; also called clone #44
Consider B2, for which the binding result in [25] is listed as “no binding (tested: 5 µg/mL)”. The Kd is 4.85 nM in [26] and 1000 nM in experiment [27]. Besides, the half-maximal effective concentration (EC50 (read off the curve)) in [28] was around 0.06 µg/mL. Besides, in [29], the response was half-maximal at 0.061 µg/mL (EC50). Further, in experiment [29], the “gMFI (max)” value was determined as 22900.
